This test has as its target HLA-A*02:01 (Homo sapiens, UniProt P04439, D140Y/D185E/D98H/E176V/E277Q/G131W/G231S/I119V/I121R/I166T/I218V/L300P/L318F/N151K/N90K/P208A/P217A/Q86G/Q94H/R138H/R169H/T345S). Description: MHC binding assay (UV-ligand exchange, β2m ELISA, peptide exchange yield). The conditions noted are these: binding to HLA-A*02:01. The text has this: Candidate peptides for T cell based therapies according to the present invention were further tested for their MHC binding capacity (affinity). The individual peptide-MHC complexes were produced by UV-ligand exchange, where a UV-sensitive peptide is cleaved upon UV-irradiation, and exchanged with the peptide of interest as analyzed. Only peptide candidates that can effectively bind and stabilize the peptide-receptive MHC molecules prevent dissociation of the MHC complexes. To determine the yield of the exchange reaction, an ELISA was performed based on the detection of the light chain (β2m) of stabilized MHC complexes. The assay was performed as generally described in Rodenko et al. (Rodenko et al., 2006).
96 well MAXISorp plates (NUNC) were coated over night with 2 ug/ml streptavidin in PBS at room temperature, washed 4× and blocked for 1 h at 37° C. in 2% BSA containing blocking buffer. Refolded HLA-A*02:01/MLA-001 monomers served as standards, covering the range of 15-500 ng/ml. Peptide-MHC monomers of the UV-exchange reaction were diluted 100 fold in blocking buffer. Samples were incubated for 1 h at 37° C., washed four times, incubated with 2 ug/ml HRP conjugated anti-β2m for 1 h at 37° C., washed again and detected with TMB solution that is stopped with […]. Absorption was measured at 450 nm. Candidate peptides that show a high exchange yield (preferably higher than 50%, most preferred higher than 75%) are generally preferred for a generation and production of antibodies or fragments thereof, and/or T cell receptors or fragments thereof, as they show sufficient avidity to the MHC molecules and prevent dissociation of the MHC complexes.
Table 11: MHC class I binding scores. Binding of HLA-class I restricted peptides to HLA-A*02:01 was ranged by peptide exchange yield: ≥10%=+; ≥20%=++; ≥50=+++; ≥75%=++++
Turning to “98 (SLIKYFLFV; listed as Homo sapiens) [compound 98]”, the “Peptide Exchange (MHC class I binding score, peptide exchange yield)” value (“Peptide Exchange” for short) was ““+” (>10% = +)”.

Take “5 (ALIFKIASA; listed as Homo sapiens) [compound 5]”: the “Peptide Exchange” value was ““+++” (>50 = +++)”.

“252 (NLLDPGSSYLL; listed as Homo sapiens) [compound 252]”: the “Peptide Exchange” value is on record as ““+++” (>50 = +++)”.

With “118 (RLLILENILL; listed as Homo sapiens) [compound 118]”, the “Peptide Exchange” value was ““+++” (>50 = +++)”.

In the case of “49 (FLTDLFAQL; listed as Homo sapiens) [compound 49]”, the “Peptide Exchange” value is ““++++” (>75% = ++++)”.

Regarding “63 (SLAHVAGCEL; listed as Homo sapiens) [compound 63]”, the “Peptide Exchange” value is ““+++” (>50 = +++)”.

As to “52 (FLVETGFLHV; listed as Homo sapiens) [compound 52]”, the “Peptide Exchange” value is listed as ““++++” (>75% = ++++)”.

Regarding “78 (GLPSFLTEV; listed as Homo sapiens) [compound 78]”, the “Peptide Exchange” value is ““+++” (>50 = +++)”.

“132 (LVYEAIIMV; listed as Homo sapiens) [compound 132]”: the “Peptide Exchange” value is ““+++” (>50 = +++)”.

Consider “342 (SLITPLQAV; listed as Homo sapiens) [compound 342]”, for which the “Peptide Exchange” value is ““+++” (>50 = +++)”.

For the substance “207 (IIADLDTTIMFA; listed as Homo sapiens) [compound 207]”, the “Peptide Exchange” value is ““+++” (>50 = +++)”.

Consider “205 (GLSQANFTL; listed as Homo sapiens) [compound 205]”, for which the “Peptide Exchange” value is on record as ““+++” (>50 = +++)”.

Take “223 (ALWVSQPPEI; listed as Homo sapiens) [compound 223]”: the “Peptide Exchange” value is on record as ““+++” (>50 = +++)”.

Turning to “117 (LLILENILL; listed as Homo sapiens) [compound 117]”, the “Peptide Exchange” value is listed as ““+++” (>50 = +++)”.

Regarding “97 (LLFATQITL; listed as Homo sapiens) [compound 97]”, the “Peptide Exchange” value is ““++” (>20% = ++)”.

“275 (VLLFIEHSV; listed as Homo sapiens) [compound 275]”: the “Peptide Exchange” value is on record as ““+++” (>50 = +++)”.

Consider “359 (FMQDPMEVFV; listed as Homo sapiens) [compound 359]”, for which the “Peptide Exchange” value is ““+++” (>50 = +++)”.

As to “356 (FLHDHQAEL; listed as Homo sapiens) [compound 356]”, the “Peptide Exchange” value was ““++” (>20% = ++)”.

Turning to “151 (SLFDSAYGA; listed as Homo sapiens) [compound 151]”, the “Peptide Exchange” value is on record as ““+++” (>50 = +++)”.

Consider “109 (KLWEGLTELV; listed as Homo sapiens) [compound 109]”, for which the “Peptide Exchange” value is recorded as ““+++” (>50 = +++)”.

For the substance “122 (LLIPVVPGV; listed as Homo sapiens) [compound 122]”, the “Peptide Exchange” value is reported as ““+++” (>50 = +++)”.

As to “242 (ILLGIQELL; listed as Homo sapiens) [compound 242]”, the “Peptide Exchange” value is ““+++” (>50 = +++)”.

With “376 (VLYNQRVEEI; listed as Homo sapiens) [compound 376]”, the “Peptide Exchange” value was ““+++” (>50 = +++)”.

As to “108 (VIYTLIHYI; listed as Homo sapiens) [compound 108]”, the “Peptide Exchange” value is given as ““+++” (>50 = +++)”.

For “233 (GIIDINVRL; listed as Homo sapiens) [compound 233]”, the “Peptide Exchange” value is ““++” (>20% = ++)”.

As for “113 (KVPAEEVLVAV; listed as Homo sapiens) [compound 113]”, the “Peptide Exchange” value is given as ““+++” (>50 = +++)”.

“187 (VMDTHLVNI; listed as Homo sapiens) [compound 187]”: the “Peptide Exchange” value is recorded as ““++++” (>75% = ++++)”.

With “11 (ALFTFSPLTV; listed as Homo sapiens) [compound 11]”, the “Peptide Exchange” value is recorded as ““+++” (>50 = +++)”.

As to “264 (TILDYINVV; listed as Homo sapiens) [compound 264]”, the “Peptide Exchange” value is ““+++” (>50 = +++)”.

As for “83 (GQGEVLVYV; listed as Homo sapiens) [compound 83]”, the “Peptide Exchange” value is on record as ““+++” (>50 = +++)”.

In the case of “300 (ILLNPAYDVYL; listed as Homo sapiens) [compound 300]”, the “Peptide Exchange” value is ““+++” (>50 = +++)”.

Consider “267 (TLLDWQDSL; listed as Homo sapiens) [compound 267]”, for which the “Peptide Exchange” value was ““+++” (>50 = +++)”.

Regarding “153 (SLLAELHVL; listed as Homo sapiens) [compound 153]”, the “Peptide Exchange” value is listed as ““+++” (>50 = +++)”.

Regarding “289 (ILEEQPMDMLL; listed as Homo sapiens) [compound 289]”, the “Peptide Exchange” value is given as ““+++” (>50 = +++)”.

Turning to “126 (LLPEGGITAI; listed as Homo sapiens) [compound 126]”, the “Peptide Exchange” value is recorded as ““+++” (>50 = +++)”.

In the case of “42 (FLEEGGVVTV; listed as Homo sapiens) [compound 42]”, the “Peptide Exchange” value was ““+++” (>50 = +++)”.

On to “354 (FIMDDPAGNSYL; listed as Homo sapiens) [compound 354]”, for which the “Peptide Exchange” value is on record as ““+++” (>50 = +++)”.

Regarding “372 (SLFGPLPGPGPALV; listed as Homo sapiens) [compound 372]”, the “Peptide Exchange” value is reported as ““+++” (>50 = +++)”.

With “127 (LLPTAPTTV; listed as Homo sapiens) [compound 127]”, the “Peptide Exchange” value is ““+++” (>50 = +++)”.

As to “206 (HMQDVRVLL; listed as Homo sapiens) [compound 206]”, the “Peptide Exchange” value is listed as ““+++” (>50 = +++)”.

Regarding “120 (AIDAALTSV; listed as Homo sapiens) [compound 120]”, the “Peptide Exchange” value is reported as ““+++” (>50 = +++)”.

Turning to “59 (FVFGDENGTVSL; listed as Homo sapiens) [compound 59]”, the “Peptide Exchange” value is ““+++” (>50 = +++)”.

As to “331 (VLWELAHLPTL; listed as Homo sapiens) [compound 331]”, the “Peptide Exchange” value is reported as ““+++” (>50 = +++)”.

“18 (LLGEFSIKM; listed as Homo sapiens) [compound 18]”: the “Peptide Exchange” value was ““+++” (>50 = +++)”.

Turning to “159 (SLQEEKLIYV; listed as Homo sapiens) [compound 159]”, the “Peptide Exchange” value is ““+++” (>50 = +++)”.

Regarding “226 (AMNISVPQV; listed as Homo sapiens) [compound 226]”, the “Peptide Exchange” value is listed as ““+++” (>50 = +++)”.

The values are drawn from patent US11260115B1, “Peptides and combination of peptides for use in immunotherapy against CLL and other cancers” (immatics biotechnologies GmbH, priority 2015, dated 2022).
